US20140107039A1 (ROCKEFELLER UNIVERSITY, published 2014)

Biological target: Polycomb Repressive Complex 2 (PRC2), purified through FLAG-tagged human EED from HeLa or HEK293T nuclear … (human, UniProt O75530 1-441; Q15910 1-746)
Assay: cell-based or functional assay

Sequence of Polycomb Repressive Complex 2 (PRC2), purified through FLAG-tagged human EED from HeLa or HEK293T nuclear … (O75530 whole entry, chain 1 of 2): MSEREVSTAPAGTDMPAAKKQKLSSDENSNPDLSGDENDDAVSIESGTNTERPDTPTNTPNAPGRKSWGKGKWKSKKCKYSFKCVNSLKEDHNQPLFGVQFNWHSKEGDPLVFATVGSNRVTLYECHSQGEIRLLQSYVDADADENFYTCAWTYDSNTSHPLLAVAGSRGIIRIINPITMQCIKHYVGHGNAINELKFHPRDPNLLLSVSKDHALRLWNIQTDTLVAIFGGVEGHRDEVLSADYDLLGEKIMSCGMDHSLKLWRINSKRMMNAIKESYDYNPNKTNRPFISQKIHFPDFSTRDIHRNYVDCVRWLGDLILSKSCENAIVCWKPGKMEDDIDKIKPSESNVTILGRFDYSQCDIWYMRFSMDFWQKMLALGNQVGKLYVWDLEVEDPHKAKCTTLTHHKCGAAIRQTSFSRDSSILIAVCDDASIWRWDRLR
Sequence of Polycomb Repressive Complex 2 (PRC2), purified through FLAG-tagged human EED from HeLa or HEK293T nuclear … (Q15910 whole entry, chain 2 of 2): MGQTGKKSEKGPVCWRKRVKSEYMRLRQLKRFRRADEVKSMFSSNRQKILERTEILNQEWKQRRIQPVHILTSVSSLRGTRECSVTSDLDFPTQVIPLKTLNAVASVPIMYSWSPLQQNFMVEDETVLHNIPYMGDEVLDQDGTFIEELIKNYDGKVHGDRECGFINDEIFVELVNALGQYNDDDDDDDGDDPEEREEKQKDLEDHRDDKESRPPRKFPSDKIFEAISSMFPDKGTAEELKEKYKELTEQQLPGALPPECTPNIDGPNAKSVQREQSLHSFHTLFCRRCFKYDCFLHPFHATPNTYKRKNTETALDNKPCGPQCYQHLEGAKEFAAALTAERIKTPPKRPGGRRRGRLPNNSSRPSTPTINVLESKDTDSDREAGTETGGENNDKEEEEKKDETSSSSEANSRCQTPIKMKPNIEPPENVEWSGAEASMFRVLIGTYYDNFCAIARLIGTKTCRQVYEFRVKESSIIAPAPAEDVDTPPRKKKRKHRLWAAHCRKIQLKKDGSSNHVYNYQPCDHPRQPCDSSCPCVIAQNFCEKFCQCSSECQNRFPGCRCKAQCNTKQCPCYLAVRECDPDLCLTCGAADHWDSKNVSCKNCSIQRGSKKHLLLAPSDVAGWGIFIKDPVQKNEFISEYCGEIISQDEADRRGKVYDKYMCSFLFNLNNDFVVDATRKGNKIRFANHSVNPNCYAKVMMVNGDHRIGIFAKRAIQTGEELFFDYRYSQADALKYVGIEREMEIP

KQLATKAARISAPSTGGVKK [H3 peptide (18-37) with Lys27 replaced by Ile]
IC50, in vitro PRC2 methylation reactions: 8.9 µM
